Assay results reported in the nanobody polyreactivity screen of Harvey et al. (2022).

Assay: yeast display, Sf9 membrane polyspecificity reagent, FACS + sequencing; frameworks hold sequencing errors
Method in brief: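 A nanobody's polyreactivity label depends on the gate it was sorted from. Yeast display cells were stained with 10% biotinylated, detergent-solubilized Sf9 membrane reagent for 1 hour at 4 °C, enriched on streptavidin microbeads and sorted by FACS. The low and high (top ~1%) gates were set on anti-HA fluorescence for expression and streptavidin fluorescence for reagent binding.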

Row | Sequence | polyreactivity (PSR sort gate)
1 | QVHLGESGGRLVQPGGSLRLSCAASGCTFCPYAMGWSRQAPGKARELVAAISNGGGPKYADSVKCRFTISRDNAKHTVYLQMNSLKPEDTAVYYCAKTLWTGRAWYDYWGQGTQVTVSS | high polyreactivity
2 | QVHLHESGGGLVQAGGSLRLSCAASGTISYAGPMGWYRQAPGKEREFVAGIGVGSNTNYADSVKGRYTIIRDNAKNTLYLQKNSLKTEDTAVYYCAVAGYAPLGRPYWGQGTQVTVSS | low polyreactivity
3 | QVHLQERGGGLVQAGGSLRLSCAASGSIFYWPWMGWYRQAPGREREFVATITTGSNTYYADSMKGHLTNSRDNAINTVYLQMISQKPEDTAVYFCAVVGDGEIEHRYWGQGTQVTVSS | high polyreactivity
4 | QVHLQESGCGLVQAGGSLRLSCAPSGSIFVSVTMGWYRQAPGKERELVASIGRGSTTNHADSVKGRFTISRDNAKNIVYLLMNSLKPEDTAVYFCAALESYGKYHGYWGQGTKVTVSS | low polyreactivity
5 | QVHLQESGGGLVKAGGSLRLSCAASGNISNHNDMGWYRQAPGKEREFVAGITAGGITNYADSVKGRFTISRDNAKNTVYLQMNSLKPEDTAVYYCAASPDYAKSYGYWGQGTQATVSS | low polyreactivity
6 | QVHLQESGGGLVQAGGSLRLSCAASGTIFRFRNMGWHRQAPGKERELVAGINGGTTTYYADSVIGRFTISRDNAKNTVYLQMNSLKPDDTAVYNCAAGASRLTYYDYWGQGTQVTVSS | low polyreactivity
7 | QVHLQESGGGLVQAGGSLRLSCAASGTISQEDWMGWYRQAPGKEREFVAAIGLGSNTNYADSLKGRFTISRDNAKNSVYLQKNSLKPEDTAVYYFAVSVWQYSDHVYRGQGTQVTVSS | low polyreactivity
8 | QVHLQESGGGLVQAGGSLRLSCAASGTITVLYKMGWFRQAPGKEREFVASINYGTSTYYADSVKGRFTVSRDSAKNTVYLQMNSLKPEDTAVYYCAAAYRWQDVYRYWGQGTQVTVSS | low polyreactivity
9 | QVHLQESGGGQVQAGGSLRLSCAASGSISYASGMGWYRQAPGTEREFVASIDPGAITNYADSVKGRFTISHDNAKNTVYLQMNSLKPEYTAVYYCAARVSTTDSHGYWGQGTQVTVSS | high polyreactivity
10 | QVHLVASGGGLVQAGGSLRLSCAASGSIFRRYAKGSYRQAPGKERELGAGISSGGYTNYAASVKGPFTISRDNAKNNVYLQRYSLKPEDTAVYYCAANQYRDVRYRPVDYWGQGTQVTVSS | high polyreactivity
11 | QVHLVDSGGGLFQAGGILRLSCAASGRTIATNAMGWYRQAPGKERELVAGISWRVGRTYYADSVKGRFTISRDNAKNSVYLQMFSLKPEDTAVYYCAANPVRSRYGYWGQGTQVTVSS | high polyreactivity
12 | QVHLVDSGGGLVLAGGSLRLSCAASGRNFERYAMGWYRKAPGKERELVAAISSSATRTYYADSVKGRFTISRDNAKNTVYLQMNSLKPEDTAVYYCAAKGAARDGSSEYNYWGQGTQVTVSS | high polyreactivity
13 | QVHLVDSGGGLVQAGGSLRLSCAASGIIFTGNAMGWYRQAPGKERELVAGITGSGGNTYYADSVKGRFTISSDNAKNTVYLQMNCLKPEDTAVYYCAARRHIFLLIIWSGRVDYWGQGTQVTVSS | low polyreactivity
14 | QVHLVDSGGGLVQAGGSLRLSCAASGSTIRYYAMGWYRQAPGKEREMVAAITSSGTSTYYADSVKGRFTISRDNAKNTVYLQMNSLKPEDTAVYYCAAPPVYKWVSSRYDYWGQGTQVTVSS | low polyreactivity
15 | QVHLVDSGGRLVQAGGSLRLSCSASGNNFPGYAMGLYRQAPGKEREFVATITSNDGTTYYADSVKGRFTISRDNAMNTFFLQMNSLKPEDTAVYYCASVVRQYGFDYLGQGTQVTVSS | low polyreactivity
16 | QVHLVDTGGGLVQARGRLRLSCPASGYNFSYYAMASYRQAPGKERELVATIDWGGGSTYYADSVQGRFTISRDIAKNTVYLQLNSLKPEDTGVYYCAKDYYINNYGYRYVSWGKGTQVTVSS | low polyreactivity
17 | QVHLVESAAGLVQAGGSLRLSCDPSGFTFYAYPMGWYSQAPGKEREFVAAISSRGGRTYYADSVKGRFTISRDNAKNTVYLQMNSLKPEDTAVYYCNVPYYSFRALSSYYWGQGTQVTVSS | high polyreactivity
18 | QVHLVESAGCLVQAAGSLRLSCSASGFTFGYNTMGWFRQPPGKERELVAAISYGGGRTYYADSVKWRFTISRDNAKNTVYLQMNSLKPEDSAVYYCAAAPIPSLTYDYWGQGTQVTVSS | low polyreactivity
19 | QVHLVESAGGLVHAGGSHRLSCAASGFIFYRNAMGCYRQEPGKERELVAAISYRGARTYYADSVKGRFTISRDYEKNTVYLQMNSLKPEDTAVYYCAAQGVSSPGVDSWGQGTQVTVSS | high polyreactivity
20 | QVHLVESAGGLVQAGGSLSLSCHASGSTFVWNAMGWYRQAPGKEMELVATMTLSTGSTYYADSVKGRFTISRDNAKNTVYLQMNSLKPEDTAVYYCNTEIFVDIIYDYGLWGQGTQVTVSS | low polyreactivity
21 | QVHLVESGAGLVQAGGSLRLSCASSGFTFKAYAMGWYRQAPGKERELVAAITKSGGRTFYADSVKGRFTISRDNAKNTVYLQMNSLKPEDTAVYYCAASYTVYYWGQGTKVTVSS | high polyreactivity
22 | QVHLVESGGALVQAGGSLRLSCAASGSTFWFYAMLWYRQAPGKERELVAAITRSAGSTYYADSVKGRFTISRDNAKYTVFLQMNSLKPEDTAVYYCAAQRESLYGGFDSWGQGTQVTVSS | low polyreactivity

Row | Sequence | polyreactivity (PSR sort gate)
23 | QVHLVESGGALVQAGGSLRLSCAASVIVFKRYAMGWYRQAPGKEREFVATISYTGGRTYYADSVKGRFTISRDNAKNTVYFQMNSLKPEDTAGYYCATLYRSSKHQPLDYWGQGTQVTVSS | high polyreactivity
24 | QVHLVESGGALVQAGGSLRLSCASSGRTFGWNVMGWYRQAPGKERELVAAISGSGGSTYYADSLKGRFTISRDNAKNTVYLQMNSLKPEDTAVYYCAALYGPGREYDYWGQGTQVTVSS | low polyreactivity
25 | QVHLVESGGCLLQAGGSLRLSCAASGSIFIINAMGWYRQAPGKERELVAAINNGVNTYYADSVKVRFTISRDNAKNTVYLQKNSLKPEDTAVYYCAADPYFYYYGYDYWGQGTQVTVSS | low polyreactivity
26 | QVHLVESGGCLVQAGGSLRLSCAASGRTFDFYAMGWYRQAPGKERELVATITSGTSTNYADSVKGRFTISRDNAKNTVYLQMYRLKPEDTAVYYCNAGGVYPRCTFLEQGYEMDYWGQGTQVTVSS | low polyreactivity
27 | QVHLVESGGCLVQARGSLRLSCAASGRTIQLYAMGWYRHPHGKVMELVAAITWSSGRTYYADSVKGRFTISRDNANNTVYLQMNRLKQEDTAVYYCNAPRGGRNTVYYWGQGTQVTVSS | high polyreactivity
28 | QVHLVESGGGFVQAGGSLRVSCAASGRSCGYNAMGWYRQAPGKERELVAAITSGGSTYYADSVKGRFTISRDNAKHTVYLQMNSLKPEDTAVYYCAARFSYWKTKRAYDWGQGTQVTVSS | high polyreactivity
29 | QVHLVESGGGIVQAGGRLRLSCAASGLIFYHYAMGWYRQAPGKEREFVAAITVSGGSTYYADSVKGRFTITRDNAKNTVYLQMNSLKPEDSAVYYCNARSVVWWASGDYWGQGTQVTVSS | low polyreactivity
30 | QVHLVESGGGIVQAGVSLRLSCAASGRIFYGYTMGWYRQAPGKERELVASIDYSTGRTYYADSVKGRFTISRDNAKYTVYLQMNSLKPEDTAVYYCNADPNYSFLRYDYWGQGTQVTVSS | high polyreactivity
31 | QVHLVESGGGKVQAGGSLRLSCAASGGTFYQYAMGWYRQAPGKESELVAAITRSGGRTYYADSVKGRFTISRDNAKNTVYFQMNSLKPEDTAVYYCAAEDVGPPDFYYWGQGTQVNVSS | high polyreactivity
32 | QVHLVESGGGLDQAGGSLRLRCAASGRIFRHYAMGWYRQAPGTERELVAAYRWSCGSTYYADSEKGRFTISRDNAKNTVYLQMNSLKPEDNAVYYCATRDAVGHRPSGPYQLYDYWGQGTQVTVSS | low polyreactivity
33 | QVHLVESGGGLDQAGGSLRLSCAASGSIYGPYAMGWYRQAPGKERELVAAIRSGGSTNYADSVKGRFTITRDNAKNTVYLLMTSLKPEDTAVYYCAAEYWGYPYDYWGQGTQVTVSS | low polyreactivity
34 | QVHLVESGGGLFQAGGSLRLSCAASGSTFTDYDMGWYRQAPGKDRELVASITSGGSTNYADSVKGRFTISRDNAKNTVYLQMNSLKPEDTAVYYGAAADADRKYDYWGQGTQVTVSS | low polyreactivity
35 | QVHLVESGGGLFQAGGSLRLSFAATGLTFSPYARGWYRHGPGKERELVASITNGGRTYYADSVKGRFTISRDNAKITVYLQMNSLKPEDTAVYYCAAYPRGARRLDYWGQGTQVTVSS | high polyreactivity
36 | QVHLVESGGGLFQEGGSLRLSCAPSGSNFATYTMGWYRQAPGKERELVAAIRRSGGSTYYADSVKGRFTLSRDNAKNTVYLLMNSLKPEDTEVYYCAAKHYYYSPYVRYDPPPGYYWGQGTQVTVSS | high polyreactivity
37 | QVHLVESGGGLVHAGGSLRLSCAASGFTLAWNAMGWYRQAPGKETELVATISRYGSSTSYADSVKGRFTISRDNSKNTVYLQMNSLKPEDTAVYYCAADRYTFRMDYWGQGTQVTVSS | high polyreactivity
38 | QVHLVESGGGLVKAGGSLRLSCAASGRTFPYNAMGWYRQAPGKERELVAAISSGGSTNYADSVKGRFTISRDNAKNTVYLQMNSLKPEDTAVYYCATKYQRRPYRYYYWGQGTQVTVSS | low polyreactivity
39 | QVHLVESGGGLVLAGGSLRLSCAASGIIFTYAMGWYRHAPGNERELVAAIDWRGGRTYYADSLKGRFTISRDNAKNTFYLQMNSLKPEDTAVYYCAPRLPGGTYYWGQGTQVTESS | high polyreactivity
40 | QVHLVESGGGLVLAGGSLRLSCAASGSTFIWNAMGWYRQAPGKERELVAAIRRGSSTNYADSVKGRFTISRDNAKNTVYLQMNSLYPEDTAVYYCAKKPVTTDVSSETFFLEMDYWGQGTQVTVSS | low polyreactivity
41 | QVHLVESGGGLVQAAGSLRLSCAASGRTFPYNAKGWYRQAPGKERELVAAISSGGSTNYADSVKGRFTISRDNAKNTVYLQMNSLKPEDTAVYYCATKYQRRPYRYYYWGQGTQVTVSS | low polyreactivity
42 | QVHLVESGGGLVQAGCSLRLICAASRYIFGYYAMGWYRQAPGKERELVAAISTDGSTDYADSVKVRFTISRYNANNTVDLQMNRLKPEDSALYYCAKELFIVTNGVYIYDSWGEGTQVTVSS | low polyreactivity
43 | QVHLVESGGGLVQAGGILLLSCAASGYDMGWYRQAPGKERELVAAISRGGSTSYADSVKGRFTISRDNAKNTVYLQMNSLKPEDTAVYYCAARYGSYRVGYDYWGQGTQVTVSS | low polyreactivity
